Source: patent publication US20250003976A1, “ANTIBODIES TARGETING PHOSPHORYLATED SEVEN-TRANSMEMBRANE RECEPTORS” (7TM ANTIBODIES GMBH, priority 2021, published 2025)

Experiments:
[1] = biological target: hemagglutinin (HA)-tagged mouse µ-opioid receptor (MOP), not phosphorylated (mouse) (UniProt P42866); test: 7TM phosphorylation assay: HA-MOP of untreated cells on anti-HA magnetic beads
[2] = biological target: hemagglutinin (HA)-tagged mouse µ-opioid receptor (MOP), phosphorylated after DAMGO stimulation (mouse) (UniProt P42866); test: 7TM phosphorylation assay: HA-MOP on anti-HA magnetic beads, rabbit primary antibody, enzyme-labeled secondary antibody
μ-opioid receptor (MOP) = μ-opioid receptor (MOP) (Mus musculus, UniProt P42866)
[3] = biological target: hemagglutinin (HA)-tagged mouse µ-opioid receptor (MOP), phosphorylated after DAMGO stimulation (mouse) (UniProt P42866); test: 7TM phosphorylation assay: HA-MOP of DAMGO-treated cells on anti-HA magnetic beads
MOP [4] = biological target: T1, MOP (Mus musculus, UniProt P42866); details: 60 min of agonist exposure
MOP [5] = biological target: T1, MOP; details: 60 min of agonist exposure; remark: listed apart in the source
[6] = biological target: hemagglutinin (HA)-tagged mouse µ-opioid receptor (MOP), not phosphorylated (mouse) (UniProt P42866); test: saturation binding of [3H]DAMGO to membranes of HA-MOP-transfected HEK293 cells

Sequence of hemagglutinin (HA)-tagged mouse µ-opioid receptor (MOP), not phosphorylated (mouse) (P42866 whole entry): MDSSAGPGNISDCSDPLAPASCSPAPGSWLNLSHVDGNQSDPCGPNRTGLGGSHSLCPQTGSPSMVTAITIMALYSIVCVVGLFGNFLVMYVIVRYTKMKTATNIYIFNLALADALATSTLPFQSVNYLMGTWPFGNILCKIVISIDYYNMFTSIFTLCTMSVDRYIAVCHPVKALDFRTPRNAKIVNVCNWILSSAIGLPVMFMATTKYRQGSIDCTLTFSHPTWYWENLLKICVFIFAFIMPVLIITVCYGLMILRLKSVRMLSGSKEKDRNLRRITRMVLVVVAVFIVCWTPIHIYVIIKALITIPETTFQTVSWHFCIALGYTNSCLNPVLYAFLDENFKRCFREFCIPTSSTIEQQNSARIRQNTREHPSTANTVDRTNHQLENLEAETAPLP
Sequence of μ-opioid receptor (MOP) (P42866 whole entry): as above
T1 sequence (P42866 whole entry): as above

## anti-pS375-MOP antibody (7TM0319C)
[1]
  optical density (OD) read at 405 nm: 0.2 OD at 405 nm
[2]
  optical density (OD) read at 405 nm: 1.2 OD at 405 nm

## CCCCCCCCCCCCCC(=O)O[C@@H]1[C@@H](C)[C@@]2(O)[C@@H](C=C(CO)C[C@]3(O)C(=O)C(C)=C[C@@H]23)[C@@H]2C(C)(C)[C@]12OC(C)=O [PMA, phorbol 12-myristate 13-acetate]
μ-opioid receptor (MOP)
  T370 phosphorylation of MOP (heterologous, PKC activation): potent and selective phosphorylation of T370

## anti-np-MOP antibody (7TM0319N)
[1]
  optical density (OD) read at 405 nm: 0.8 OD at 405 nm
[3]
  optical density (OD) read at 405 nm: 0.8 OD at 405 nm

## C[C@@H](NC(=O)[C@@H](N)Cc1ccc(O)cc1)C(=O)NCC(=O)N(C)[C@@H](Cc1ccccc1)C(=O)NCCO [DAMGO, [D-Ala2,N-MePhe4,Gly-ol]-enkephalin]
μ-opioid receptor (MOP)
  extent of MOP phosphorylation resulting from GRK2/3 recruitment: full phosphorylation
MOP [4]
  recruitment of GRK2 and GRK3 to MOP: high efficiency
MOP [5]
  β-arrestin1 and β-arrestin2 recruitment: virtually identical to those of DAMGO-induced MOP phosphorylation

## [D-Ala2,N-MePhe4,Gly-ol]-enkephalin (DAMGO) (peptide)
[6]
  functional MOPs per cell (saturation binding) (MOPs per cell): 300000
